US20070072177A1 (CRUCELL HOLLAND B V, published 2007)
Numbering of substitutions follows the chain as printed.

T1: glycoprotein of rabies virus strain CVS-11 (rabies virus strain CVS-11, UniProt O92284 20-524)
T1 sequence: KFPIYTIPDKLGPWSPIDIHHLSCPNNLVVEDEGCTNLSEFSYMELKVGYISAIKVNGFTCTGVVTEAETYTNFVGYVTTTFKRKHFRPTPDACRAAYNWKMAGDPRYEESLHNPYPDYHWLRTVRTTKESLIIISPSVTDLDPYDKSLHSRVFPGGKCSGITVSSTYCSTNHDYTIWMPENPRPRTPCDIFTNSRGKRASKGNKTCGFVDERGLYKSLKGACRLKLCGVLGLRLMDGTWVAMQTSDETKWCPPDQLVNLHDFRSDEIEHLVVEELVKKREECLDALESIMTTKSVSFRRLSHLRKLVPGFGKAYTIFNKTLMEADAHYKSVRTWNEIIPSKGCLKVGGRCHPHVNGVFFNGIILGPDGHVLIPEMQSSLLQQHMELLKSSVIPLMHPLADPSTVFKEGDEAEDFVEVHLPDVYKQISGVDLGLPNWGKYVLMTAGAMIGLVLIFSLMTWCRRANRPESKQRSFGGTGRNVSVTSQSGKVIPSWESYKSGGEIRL

T2: rabies virus glycoprotein (G protein) of strain CVS-11 (rabies virus strain CVS-11, UniProt O92284 20-524)
T2 sequence: T1 sequence

B1: SC04-120 (scFv)
scFv: AMAEVQLVQSGGGLVQPGRSLRLSCAASGFTFSTYGMHWVRQAPGKGLEWVATISYDGSIKDYADSEKGRFTISRDNSKNTLYLQMNSLRAEDTAVYYCAKGGKTGEFDYWGQGTLVTVSSGTGGSGGTGSGTGGSTDIQLTQSPSTLSASVGDRVTITCRASQGINSYLAWYQQEPGKAPKLLIYAASTLQSGVPSRFSGSGSGTEFTLTISSLQPEDFATYYCQQLNSYPFTFGPGTKVDIKRAAA
B2: SC04-125 (scFv)
scFv: AMAQVQLVESGGGVVQPGRSLRLSCAASGFTFSSYGMHWVRQAPGKGLEWVAVISYDGSDKYYADSVKGRFTISRDNSKNTLYLQMNSLRAEDTAVYYCAKIATAGTGFDYWGQGTLVTVSSGTGGSGGTGSGTGGSTDIQMTQSPSSVSASVGDRVTITCRASQGISSYLAWYQQKPGKAPKLLIYDASSLESGVPSRFSGSGSGTEFTLTISSLQPDDFATYYCQQLNSYPLTFGGGTKVEIKRAAA
B3: SC04-126 (scFv)
scFv: AMAQVTLKESGPTLVNPTQTLTLTCTFSGFSLSTGGVGVGWFRQPPGKALEWLARIDWDDDKYYSTSLKTRLTISKDTSKIQVVLTMTNMDPVDTATYYCARMGFTGTYFDYWGQGTLVTVSSGTGGSGGTGSGTGGSTQSVLTQPPSVSVAPGKTARITCGGNNIGSKSVHWYQQKPGQAPVLVIYYDSDRPSGIPERFSGSNSGNTATLTISRVEAGDEADYYCQVWDSSSDHPYVFGTGTKLTVLGAAA
B4: SC04-140 (scFv)
scFv: AMAQMQLVQSGGGVVQPGRSLRLSCAASGFTFSSYGMHWVRQAPGKGLEWVAVILYDGSNKYYADSVKGRFTISRDNSKNALYLQMNSLRAEDTAVYYCAKVTNPGDAFDIWGQGTMVTVSSGTGGSGGTGSGTGGSTDIQMTQSPSSLSASVGDRVTITCRASQGISSALAWYQQKPGKAPKLLIYDASSLESGVPSRFSGSGSGTDFTLTISSLQPEDFATYYCQQFNSYPLTFGGGTKVEIKRAAA
B5: SC04-144 (scFv)
scFv: AMAQVQLQELGGGVVQPGRSLRLSCAASGFTFGSYGMHWVRQAPGKGLEWVATISYDGSIKDYADSEKGRFTISRDNSKNTLYLQMNSLRAEDTAVYYCAKGGKTGEFDYWGQGTLVTVSSGTGGSGGTGSGTGGSTDIQLTQSPSSLSASVGDRVTITCRASQGISSYLAWYQQKPGKGPKLLIYAASTLQSGVPSRFSGSGSGTDFSLTISSLQPEDLATYYCQQYDSYPLTFGGGTKVEIKRAAA
B6: SC04-146 (scFv)
scFv: AMAEVQLVQSGGGVVQPGRSLRLSCAASGFTFSSYGMHWVRQAPGKGLEWVATISYDGSIKDYADSEEGRFTISRDNSKNTLYLQMNSLRAEDTAVYYCAKGGKTGEFDYWGQGTLVTVSSGTGGSGGTGSGTGGSTDVVMTQSPATLSVSPGESATLFCRASESVYSNLAWYQHKPGRAPRLLIYGASTRATGIPARFDGTGSGTDFTLTISSLQSEDFAVYYCQQYNDWPITFGQGTRLEIKRAAA
B7: CR04-010 (antibody, V domains shown)
VH: QVQLVESGGDLVQPGRSLRLSCAASGFTFSSYGMHWVRQAPGKGLEWVADISYDGSNKYYADSVKGRFTISRDNSKNTLYLQMNSLRAEDTAVYYCAKDGLDLTGTIQPFGYWGQGTLVTVSS
VL: AIQMTQSPSSLSASVGDRVTITCRASQGIRNDLGWYQQKPGKAPKLLIYAASSLQSGVPSRFSGSGSGTDFTLTISSLQPEDFATYYCLQDYNYPRTFGQGTKVEIKR
B8: CR57 (antibody, V domains shown)
VH: QVQLVQSGAEVKKPGSSVKVSCKASGGTFNRYTVNWVRQAPGQGLEWMGGIIPIFGTANYAQRFQGRLTITADESTSTAYMELSSLRSDDTAVYFCARENLDNSGTYYYFSGWFDPWGQGTLVTVSS
VL: QSALTQPRSVSGSPGQSVTISCTGTSSDIGGYNFVSWYQQHPGKAPKLMIYDATKRPSGVPDRFSGSKSGNTASLTISGLQAEDEADYYCCSYAGDYTPGVVFGGGTKLTVLG
B9: CRJB (antibody, V domains shown)
VH: QITLKETGPTLVKPTQTLTLTCTFSGFSLSTSGVGVGWIRQPPGKALEWVTLIYWDDDKRYSPSLENRVTIRKDTSKNQVALTMTNMDPLDTGTYYCAHRQHISSFPWFDSWGQGTLVTVSS
VL: SYVLTQPPSVSVAPGKTARINCGGNNIEYRSVHWYQQKSGQAPVAVIYDNSDRPSGIPERFSGSKSGNTATLTISRVEAGDEADYYCQVWDISSDVVFGGGTKLTVLG
B10: CR04-098 (antibody, V domains shown)
VH: QVQLVESGGGAVQPGRSLRLSCAASGFTFSSYGMHWVRQAPGKGLEWVAVILYDGSDKFYADSVKGRFTISRDNSKNTLYLQMNSLRAEDTAVYYCAKVAVAGTHFDYWGQGTLVTVSS
VL: B7 VL with A1D, L89Q, D91L, Y92N, N93S, R96P, Q100G, R108T

target: T1, glycoprotein of rabies virus strain …; test: cell-based or functional assay

Going from B1 to B2, the “Potency (IU/ml)” value falls from 6 IU/ml to 3 IU/ml.

Compared with B3, B4 is higher in “Potency (IU/ml)” value: 0.1 IU/ml for the first, 1 IU/ml for the second.

Compared with B5, B6 is lower in “Potency (IU/ml)” value: 6 IU/ml for the first, 3 IU/ml for the second.

target: T2, rabies virus glycoprotein (G protein) …; test: cell-based or functional assay

First: B7
Second: B8
The “Neutralizing potency (modified RFFIT)” value of the first is lower: 3000 IU/mg for the first, 3800 IU/mg for the second.

B9 was tested, and the “Neutralizing potency (modified RFFIT)” value was 605 IU/mg.

target: T3, purified rabies virus glycoprotein (rabies virus ERA strain) (rabies virus strain ERA, UniProt P03524 20-524); test: phage ELISA on coated purified G protein (ERA), anti-M13-HRP

Going from B1 to B2, the “OD 492 nm” value rises from 0.571 OD 492 nm to 0.735 OD 492 nm.

First: B3
Second: B4
The “OD 492 nm” value of the first is lower: 0.232 OD 492 nm for the first, 0.865 OD 492 nm for the second.

Compared with B5, B6 is lower in “OD 492 nm” value: 0.775 OD 492 nm for the first, 0.484 OD 492 nm for the second.

target: T3, purified rabies virus glycoprotein …; test: SPR (BIAcore3000), ERA glycoprotein amine-coupled to CM5 chip, antibody injected

B10 was tested, and the Kd was 4.5 nM.
